Laboratory results published in patent US20230330251A1, “METHODS FOR TREATING CANCERS WITH ANTIBODY DRUG CONJUGATES (ADC) THAT BIND TO 191P4D12 PROTEINS” (AGENSYS, INC., priority 2020, published 2023).

How the values were obtained:
Type in all cases: in vivo, human
[1] = test system: subjects with previously treated locally advanced or metastatic urothelial cancer; assay: EV-301 phase 3 study: overall survival (OS), enfortumab vedotin vs chemotherapy
Excerpt: Subjects will be stratified according to the following: Eastern Cooperative Oncology Group Performance Status (ECOG PS), regions of the world and liver metastasis.
OS is the primary endpoint. OS is defined as the time from randomization to the date of death. Secondary endpoints include PFS1, ORR, DOR, DCR, safety and QOL/PRO.
Subjects in Arm A will receive EV on Days 1, 8 and 15 of each 28-day cycle. […] Within the control arm, the overall proportion of subjects receiving vinflunine will be capped at approximately 35%. Subjects will continue to receive study treatment until radiological disease progression as determined per investigator assessment or other discontinuation criteria are met or upon study termination, or study completion, whichever occurs first. No on-study crossover will be allowed. This study will consist of 3 phases: screening, treatment and follow-up.
The Full Analysis Set (FAS) will be used for the efficacy analysis on OS and PFS1. All subjects who are randomized will be included in the FAS. For time to event endpoints including OS and PFS1 log-rank test stratified by randomization stratification factors including liver metastasis, baseline ECOG PS and regions of the world at baseline will be used to compare the 2 treatment arms. The hazard ratio and corresponding 95% confidence interval from the stratified Cox proportional hazards regression model will also be presented. The median OS, PFS1 and DOR will be estimated using the Kaplan-Meier method and will be reported along with the corresponding 95% confidence interval by treatment arm.
Efficacy analysis for OS and PFS was conducted on the FAS. The interpretation of results from statistical tests was based on the FAS. Efficacy analysis for response related endpoints, e.g., ORR and DCR was conducted on RES.
OS was formally tested at both interim analysis and final analysis. At either interim or final analysis, the formal hypothesis tests on the selected secondary endpoints including PFS1, ORR and DCR, were performed hierarchically (per the order of PFS1->ORR->DCR) only when the OS analysis is rejected. The details about the significance levels at interim analysis and final analysis for each efficacy endpoints (OS, PFS1, ORR and DCR) is specified in SAP.
The primary efficacy endpoint of OS was analyzed using the log-rank test stratified by ECOG PS (0 vs 1), regions of the world (Western EU, US or the rest of world) and liver metastasis (yes or no). Randomized treatment and the strata used for randomization was used for the analysis. In addition, the stratified Cox proportional hazard model was used to estimate the hazard ratio and the corresponding 95% confidence interval. The median OS was estimated using the Kaplan-Meier method and will be reported along with the corresponding 95% confidence interval by treatment arm.
The primary analysis was performed using the FAS.
Additional analyses such as unstratified log-rank test and OS analyses adjusting the crossover effect may be conducted, if appropriate. Details are specified in the SAP.

[2] = test system: patients with previously treated locally advanced or metastatic urothelial carcinoma (la/mUC) with poor prognostic factors; assay: EV-301 hard-to-treat subgroups: safety and tolerability
Description: Subgroup analyses were prespecified for the primary endpoint of OS and secondary endpoints of investigator-assessed progression-free survival (PFS) and overall response rate (ORR) per RECIST v1.1. Kaplan-Meier analyses compared OS and PFS between treatments for selected hard-to-treat subgroups as follows: age ≥65 years, presence of liver metastasis, primary upper tract disease, and checkpoint inhibitor (CPI) nonresponse. ORR and safety were also evaluated within subgroups. The Cox proportional hazards model was used to estimate hazard ratios. The Cochran-Mantel-Haenszel test was used to compare response and disease control rates between groups.

[3] = test system: metastatic urothelial cancer patients; assay: Phase 1 study of EV: clinical activity by dose; settings: 1.25 mg/kg dose vs lower doses
Description: EV will be administered at a dose of 1.25 mg/kg as an intravenous infusion over approximately 30 minutes on Days 1, 8, and 15 of each 28-day cycle. […] A maximum tolerated dose (MTD) was not reached in this study. At the 1 mg/kg dose level, 2 dose- limiting toxicities (DLTs) were observed: Grade 3 proctalgia (later changed to grade 2 by the investigator) thought related to radiation recall and Grade 4 hyperuricemia without clinical sequelae.

[4] = Aged ≥65 Years, N = 190 EV, 188 SC
[5] = Nonresponsive to Prior PD-1/L1 Inhibitor, N = 202 EV, 202 SC
[6] = Presence of Liver Metastasis, N = 90 EV, 92 SC
[7] = Primary Upper Tract Disease, N = 96 EV, 102 SC

enfortumab vedotin
HR (95% CI), OS sensitivity analysis ([1]; Adjusting in chemotherapy arm based on the rank preserving structural failure time method): 0.705 (0.516-0.853)
Median OS ([1]; All): 12.88 mo
OS, EV vs SC HR ([1]; All): 0.702
Overall survival (OS) Events, % ([1]; All): (44.5) %
Overall survival (OS) Events, n/N ([1]; All): 134/301
Median OS ([1]; FAS, Kaplan-Meier): 12.88 Months
Deaths, % ([1]; FAS, interim analysis): (44.5%)
# of Deaths ([1]; Full Analysis Set, data cutoff 15 Jul. 2020): 134
HR (95% CI), OS sensitivity analysis ([1]; Inverse probability of censoring weights method): 0.630 (0.435-0.912)
reduction in risk of death ([1]; PADCEV vs chemotherapy): 30%
HR (95% CI), OS sensitivity analysis ([1]; Unstratified analysis): 0.719 (0.572-0.903)
estimated percentage of patients alive at 12 months ([1]; in vivo): 51.5%
overall survival (OS) compared with standard chemotherapy ([1]; in vivo): superior
primary endpoint of overall survival compared to chemotherapy ([1]; in vivo): met its primary endpoint of overall survival
risk of death lower with enfortumab vedotin than with chemotherapy ([1]; median follow-up 11.1 months): 30%
Grade ≥3 TRAE: Anemia, % [2, 4]: 2.6%
Grade ≥3 TRAE: Decreased neutrophil count, % [2, 4]: 7.4%
Grade ≥3 TRAE: Decreased white blood cell count, % [2, 4]: 2.1%
Grade ≥3 TRAE: Fatigue, % [2, 4]: 7.9%
Grade ≥3 TRAE: Febrile neutropenia, % [2, 4]: 1.1%
Grade ≥3 TRAE: Maculopapular rash, % [2, 4]: 7.4%
Grade ≥3 TRAE: Neutropenia, % [2, 4]: 3.7%
Grade ≥3 TRAE: Anemia, % [2, 5]: 3.0%
Grade ≥3 TRAE: Decreased neutrophil count, % [2, 5]: 5.0%
Grade ≥3 TRAE: Decreased white blood cell count, % [2, 5]: 1.0%
Grade ≥3 TRAE: Fatigue, % [2, 5]: 5.0%
Grade ≥3 TRAE: Febrile neutropenia, % [2, 5]: 1.0%
Grade ≥3 TRAE: Maculopapular rash, % [2, 5]: 9.4%
Grade ≥3 TRAE: Neutropenia, % [2, 5]: 4.5%
Grade ≥3 TRAE: Anemia, % [2, 6]: 3.3%
Grade ≥3 TRAE: Decreased neutrophil count, % [2, 6]: 5.6%
Grade ≥3 TRAE: Fatigue, % [2, 6]: 5.6%
Grade ≥3 TRAE: Febrile neutropenia, % [2, 6]: 2.2%
Grade ≥3 TRAE: Maculopapular rash, % [2, 6]: 8.9%
Grade ≥3 TRAE: Neutropenia, % [2, 6]: 5.6%
Grade ≥3 TRAE: Anemia, % [2, 7]: 6.3%
Grade ≥3 TRAE: Decreased neutrophil count, % [2, 7]: 9.4%
Grade ≥3 TRAE: Decreased white blood cell count, % [2, 7]: 1.0%
Grade ≥3 TRAE: Fatigue, % [2, 7]: 9.4%
Grade ≥3 TRAE: Febrile neutropenia, % [2, 7]: 2.1%
Grade ≥3 TRAE: Maculopapular rash, % [2, 7]: 10.4%
Grade ≥3 TRAE: Neutropenia, % [2, 7]: 6.3%
grade ≥3 treatment-related AEs adjusted for treatment exposure, EV versus SC ([2]; across all four hard-to-treat subgroups): less frequently
overall rate of AE's ([2]; patients non-responsive to prior treatment with PD-1/L1 inhibitors): 97.5%
overall rate of AE's ([2]; patients with liver metastasis): 97.8%
overall rate of AE's ([2]; patients with primary upper tract disease): 99.0%
overall rate of AE's ([2]; patients ≥65 years of age): 97.4%
clinical activity by dose [3]: highest activity
